Among the targets are A/Beijing/262/95 (H1N1); A/AA/Marton/43 (H1N1); A/USSR/90/77 (H1N1).
Settings in all cases: remark: other sources report otherwise
For assay [1], the target named is A/Solomon Islands/3/06 (H1N1).

What is called Kd is the constant that tells how readily two partners part at equilibrium.

B1: HB80.3 ([change], [change], [change], [change], Delta54-95) (designed binder)
chain: MASTRGSGRPWGFSENLAFELALSFTNKDTPDRWAKVAQYVSGRTPEEVKKHYE
Regarding B1, the Kd with A/Beijing/262/95 (H1N1) was determined as 10 nM; in assay [1], 100 nM; with A/AA/Marton/43 (H1N1), 10 nM; with A/USSR/90/77 (H1N1), 10 nM.
